By EC50 is commonly meant the midpoint of the concentration-response curve.

These results are taken from patent US20200316217A1 (CHILDREN S MEDICAL CENTER, published 2020).

The target of one assay is T1, human PTHR2 (human, UniProt P49190 25-550).
T1 construct: whole, on cells; Stably expressed on HEK293 cells; also called hPTHR2
The assay can be described thus: flow cytometry, AlexaFluor647-VHH on stably transfected HEK293 cells. The method, then: (§1) FIGS. 14A-14B: Binding of VHHs to HEK293 cell lines stably transfected with PTHRs. (FIG. 14A) Analysis of VHH binding to PTHR1, PTHR2 and variants by flow cytometry. HEK293 cell lines in suspension were incubated on ice with 100 nM VHH sortagged with Alexafluor647, pelleted by centrifugation, washed and analyzed. Data for PTHR1-GFP is found in FIGS. 17A to 17C. (FIG. 14B) Analysis of VHH binding with microscopy. […] Following staining, cells were washed and treated with fixative in preparation for image acquisition either immediately after staining (0 m) or following a 15-minute incubation in medium at room temperature (15 m).
(§2) Suspensions of cells in PBS were stained for 1 hour on ice in the presence of indicated concentrations of VHH probes functionalized with Alexafluor647. Cells were pelleted by centrifugation and washed with PBS prior to analysis by flow cytometry (BD Accuri C6). Gating was performed on forward scatter/side scatter profiles to analyze intact cells. Data was analyzed using FlowJo version 7.6. The median fluorescent intensity (MFI) of stained cells was used to generate VHH binding dose response curves (FIG. 20).
(§3) It was determined whether VHHs bound to their intended targets on live cells by flow cytometry (FIG. 14A).
(In general: In flow cytometry, cells or beads pass a laser one at a time.)

Assay [1] concerns the target T2, PTHR16E (human, UniProt Q03431 27-593).
T2 construct: Stably expressed on HEK293 cells; also called hPTHR16E
T2 chain: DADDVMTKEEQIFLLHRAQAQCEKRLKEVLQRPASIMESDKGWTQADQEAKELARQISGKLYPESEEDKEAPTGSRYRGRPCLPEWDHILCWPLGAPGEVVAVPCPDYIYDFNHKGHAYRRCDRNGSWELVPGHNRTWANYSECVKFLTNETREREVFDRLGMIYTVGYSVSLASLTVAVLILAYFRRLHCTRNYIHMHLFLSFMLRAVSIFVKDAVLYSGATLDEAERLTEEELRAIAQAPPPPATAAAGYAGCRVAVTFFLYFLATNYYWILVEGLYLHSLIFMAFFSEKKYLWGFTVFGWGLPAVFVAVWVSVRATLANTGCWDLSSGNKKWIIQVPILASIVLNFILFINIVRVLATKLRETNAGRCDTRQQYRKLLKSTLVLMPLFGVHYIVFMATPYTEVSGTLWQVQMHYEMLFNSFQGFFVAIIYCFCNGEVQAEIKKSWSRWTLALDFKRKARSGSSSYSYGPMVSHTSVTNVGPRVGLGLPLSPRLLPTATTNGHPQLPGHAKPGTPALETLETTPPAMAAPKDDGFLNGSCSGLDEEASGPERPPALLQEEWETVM
The assay can be described thus: flow cytometry, AlexaFluor647-VHH titrated on HEK293 cells expressing the receptor (MFI). The protocol: as §2
(§4) It was determined whether VHHs bound to their intended targets on live cells by flow cytometry (FIG. 14A). […] To estimate the affinity of the selected VHH for their targets flow cytometry was used to quantify binding.

Assay [2] concerns the target T3, PTHR1YFPΔECD (human).
T3 construct: PTHR1 in which YFP replaces the entire extracellular domain; Stably expressed on HEK293 cells (GD5); also called Human PTHR1-delNT-YFP; hPTHR1YFPΔECD
The assay can be described thus: flow cytometry, AlexaFluor647-VHH on stably transfected HEK293 cells. The protocol:
as §1, §2, §3

A further assay concerns the target T4, Human PTHR1 WT (human, UniProt Q03431 27-593).
T4 construct: Stably expressed on HEK293 cells (GP2.3); also called hPTHR1; wild-type PTHR1
T4 sequence: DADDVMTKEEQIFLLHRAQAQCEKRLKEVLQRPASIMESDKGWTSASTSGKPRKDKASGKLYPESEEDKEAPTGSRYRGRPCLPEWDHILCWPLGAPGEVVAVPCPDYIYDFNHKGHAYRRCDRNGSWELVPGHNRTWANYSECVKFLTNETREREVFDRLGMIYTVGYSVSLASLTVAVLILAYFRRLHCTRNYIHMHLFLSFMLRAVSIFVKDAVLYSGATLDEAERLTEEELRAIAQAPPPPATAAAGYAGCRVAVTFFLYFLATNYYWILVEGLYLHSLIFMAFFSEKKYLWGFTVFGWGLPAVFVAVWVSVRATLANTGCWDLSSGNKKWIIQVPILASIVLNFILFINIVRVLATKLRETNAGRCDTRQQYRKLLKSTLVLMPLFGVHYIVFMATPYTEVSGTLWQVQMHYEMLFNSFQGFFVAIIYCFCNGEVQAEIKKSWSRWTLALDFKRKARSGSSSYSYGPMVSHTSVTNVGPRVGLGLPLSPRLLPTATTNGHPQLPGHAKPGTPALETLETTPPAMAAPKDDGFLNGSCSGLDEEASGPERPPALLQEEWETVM
The assay can be described thus: flow cytometry, AlexaFluor647-VHH titrated on HEK293 cells expressing the receptor (MFI); plateau estimated. The protocol:
as §2, §4

For assay [3], the target named is T2, PTHR16E. Described as above. The protocol:
as §2, §4

Another assay addresses T5, PTHR1GFP (human, UniProt Q03431 95-593).
T5 construct: Human PTHR1 with the pH-sensitive GFP variant pHluorin2 inserted in the exon 2 portion; Stably expressed on HEK293 cells (GPG10); also called hPTHR1-GFP; hPTHR1GFP
Described as above. The protocol: as §2, §4

The target of assay [4] is T6, rat PTHR1 (rat, UniProt P25961 27-591).
T6 construct: whole, on cells; Stably expressed on HEK293 cells (GR35); also called rPTHR1
T6 sequence (looked up): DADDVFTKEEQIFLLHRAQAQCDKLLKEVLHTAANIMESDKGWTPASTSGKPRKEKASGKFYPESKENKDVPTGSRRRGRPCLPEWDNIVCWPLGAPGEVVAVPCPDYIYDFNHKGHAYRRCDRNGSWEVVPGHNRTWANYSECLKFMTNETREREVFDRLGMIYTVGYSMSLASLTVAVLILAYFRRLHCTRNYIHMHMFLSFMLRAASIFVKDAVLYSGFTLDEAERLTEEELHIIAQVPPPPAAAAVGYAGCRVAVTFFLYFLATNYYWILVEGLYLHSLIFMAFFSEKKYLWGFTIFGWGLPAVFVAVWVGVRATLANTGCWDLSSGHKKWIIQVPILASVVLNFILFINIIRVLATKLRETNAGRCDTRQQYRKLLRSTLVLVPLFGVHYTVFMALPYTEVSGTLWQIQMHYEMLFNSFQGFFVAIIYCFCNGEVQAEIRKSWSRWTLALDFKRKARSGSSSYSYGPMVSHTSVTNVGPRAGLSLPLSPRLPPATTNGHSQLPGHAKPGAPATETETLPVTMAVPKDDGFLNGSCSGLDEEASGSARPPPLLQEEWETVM
Described as above. The protocol:
as §2, §4

For assay [5], the target named is T3, PTHR1YFPΔECD. The assay can be described thus: cell-based or functional assay.
Assay [6] has as its target T3, PTHR1YFPΔECD. The assay can be described thus: cell-based or functional assay. This is another data set of the same source.
In assay [7] the target is T6, rat PTHR1. The assay can be described thus: cell-based or functional assay.

Ends that are not written are not given here. Bounds are passed on as bounds.

T1 sequence (P49190 25-550): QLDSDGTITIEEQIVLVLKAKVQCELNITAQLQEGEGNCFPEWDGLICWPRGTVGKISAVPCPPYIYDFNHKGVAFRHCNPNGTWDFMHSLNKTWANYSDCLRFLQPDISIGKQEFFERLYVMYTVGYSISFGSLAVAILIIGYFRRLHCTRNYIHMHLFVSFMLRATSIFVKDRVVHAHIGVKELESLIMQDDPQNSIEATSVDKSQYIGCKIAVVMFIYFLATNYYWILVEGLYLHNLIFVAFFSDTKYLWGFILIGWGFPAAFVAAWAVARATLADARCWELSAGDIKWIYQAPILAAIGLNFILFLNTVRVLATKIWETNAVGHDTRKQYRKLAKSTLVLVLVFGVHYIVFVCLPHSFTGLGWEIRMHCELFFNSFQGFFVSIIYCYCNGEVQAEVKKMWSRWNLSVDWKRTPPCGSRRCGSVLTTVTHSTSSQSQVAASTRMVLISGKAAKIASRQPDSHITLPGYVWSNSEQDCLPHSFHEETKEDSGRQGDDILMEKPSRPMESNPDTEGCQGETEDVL

B1: VHH6E (VHH)
VHH: QVQLQESGGGLVQPGGSLRLSCAASGFVFENSAMAWYRQAPGKERELIAVIGTTFIKLAESVKGRFTISRDNAKSTVYLQMNNLKPEDTAVYYCSKSGAYWGQGTQVTVSS
modifications: C-terminus sortagged to a GGG-probe (AlexaFluor647, tetramethylrhodamine or biotin-azide)
notes: It recognises a 14-mer from UBC6e; also called VHH05; VHH005
On to B1, for which, in the assay with human PTHR2, the binding result is recorded as “no binding (tested: 100 nM)”. The molecule also showed an EC50 with PTHR16E [1] below 10 nM.

B2: VHHPTHR (VHH)
VHH: EVQLVESGGGLVQAGGSLRLSCAASGNIFANNIMGWYRQPPGKEREFVAHVSHDGDSMYAVSVKGRFAISRKDATNLYLQMNSLKPEDTAIYFCRLLNIPTQGRMEGFWGQGTQVTVSS
modifications: C-terminus sortagged to a GGG-probe (AlexaFluor647, tetramethylrhodamine or biotin-azide)
notes: The label depends on the assay; also called VHH22A3; 22A3
As for B2, the binding result with PTHR1YFPΔECD [2] and with human PTHR2 was “no binding (tested: 100 nM)” in each case. The EC50 in the assay with Human PTHR1 WT, in the assay with PTHR16E [3], in the assay with PTHR1GFP and with rat PTHR1 [4] was 100 to 200 nM throughout.

Regarding SVSEIQLMHNLGKHLNSMERVEWLRKKLQDVHNF-NH2 [PTH(1-34)], the “Stimulation of receptor (cAMP), EC50” value with PTHR1YFPΔECD [5] was determined as 689 nM. Besides, in the assay with PTHR1YFPΔECD [6], the “cAMP induction EC50” value was determined as 689 nM and the “cAMP induction Max (normalized)” value amounted to 1 normalized. Besides, in the assay with rat PTHR1 [7], the “cAMP induction Max (normalized)” value came out at 1 normalized.

B3: VHHGFP (VHH)
VHH: QVQLQESGGALVQPGGSLRLSCAASGFPVNRYSMRWYRQAPGKEREWVAGMSSAGDRSSYEDSVKGRFTISRDDARNTVYLQMNSLKPEDTAVYYCNVNVGFEYWGQGTQVTVSS
modifications: C-terminus sortagged to a GGG-probe (AlexaFluor647 or biotin-azide)
notes: also called VHH Enhancer; VHH-enhancer
As for B3, in the assay with human PTHR2, the binding result was “no binding (tested: 100 nM)”.
